B1: Abet0343 scFv (scFv, V domains shown, not shown: small tags and cut ends)
VH: EVQLLESGGGLVQPGGSLRLSCAASGFNFNHQVMWWVRQAPGKGLEWVSVIGKTNENIAYADSVKGRFTISRDNSKNTLYLQMNSLRAEDTAVYYCAREWMDHSRPYYYYGMDVWGQGTLVTVSS
VL: QSVLTQPPSVSVSPGQTASITCSGHNLEDKFASWYQQKSGQSPVLVIYRDDKRPSGIPERFSASNSGHTATLTISGTQATDEADYYCSSQDTVTRVFGGGTKLTVL
notes: Purified scFv expressed in E. coli
B2: Abet0383 scFv (scFv, V domains shown, not shown: small tags and cut ends)
VH: EVQLLESGGGLVQPGGSLKLSCAASGFTFDWYPMWWVRQAPGKRLEWISVIGADNAKIAYADSVKGRFTISRDNSKNTLYLQMNSLRAEDTAVYYCAREWMGHSRPYYYYGMDVWGQGTPVTVSS
VL: B1 VL with Q1S, S2Y, V3E, E28G, S39P
notes: as for B1
B3: Abet0329 scFv (scFv, V domains shown, not shown: small tags and cut ends)
VH: EVQLLESGGGLVQPGGSLRLSCAASTFNLKRETMWWVRQAPGKGLEWVSVIGSHQERTSYADSVKGRFTISRDNSKNTLYLQMNSLRAEDTAVYYCAREWMDHSRPYYYYGMDVWGQGTLVTVSS
VL: B1 VL with Q1S, S2Y, V3E, L27V, E28S, F31W, A32M, S33T, S39P
notes: as for B1
B4: Abet0328 scFv (scFv, V domains shown, not shown: small tags and cut ends)
VH: EVQLLESGGGLVQPGGSLRLSCAASRDPFKADTMWWVRQAPRKRLEWVSVIGAHTTNSAYADSVKGRFTISRDNSKNTLYLQMNSLRAEDTAVYYCAREWMDRSRPYYYYGMDVWGQGTLVTVSS
VL: B1 VL with Q1S, S2Y, V3E, A18V, H25R, S39P, I57V
notes: as for B1
B5: Abet0381 scFv (scFv, V domains shown, not shown: small tags and cut ends)
VH: EVQLLESGGGLVQPGGSLRLSCAASSPSFPRETMWWVRQAPGKGLEWVSVIGTQPNRLTYADSVKGRFTISRDNSKNTLYLQMNSLRAEDTAVYYCAREWMDHSRPYYYYGIDVWGQGTLVTVSP
VL: B1 VL with Q1S, S2Y, V3E, V12A, A32V, S39P, D84N, V96A
notes: as for B1
B6: Abet0378 scFv (scFv, V domains shown, not shown: small tags and cut ends)
VH: B1 VH with N28P, N30E, H31T, Q32D, V33I, K53T, T54N, N55T, E56D, I58V
VL: B1 VL with Q1S, S2Y, V3E, S39P
B7: Abet0379 scFv (scFv, V domains shown, not shown: small tags and cut ends)
VH: EVQLLESGGGLVQPGGSLRLSCAASGFDFAETPLWWVRQAPGERLEWVSVIGSNQNKTAYADSVKGRFTISRDNSKDTLYLQMNSLRAEDTAVYYCAREWMDHSRPYYYYGMDVWGQGTLVTVSS
VL: B1 VL with E82G, S88A, S89T, T92N, V93F
notes: as for B1
B8: Abet0373 scFv (scFv, V domains shown, not shown: small tags and cut ends)
VH: EVQLLESGGGLVQPGGSLRLSCVASGFDFERSVMWWVRQAPGKRLEWVSVIGSGKTNITYADSVKGRFTISRDNSKNTLYLQMNSLRAEDTAVYYCAREWMDHSRPYYYYGMDVWGQGTLVTVSS
VL: B1 VL with Q1S, S2Y, V3E, S39P, G56E
notes: as for B1

Changes are numbered by the printed parent chain.

For the first assay, the target named is T1, biotinylated synthetic human Amyloid beta 1-42 peptide (human, UniProt P05067 672-713, biotinylated (N-terminal biotin in Example 4)).
T1 construct: domain: Amyloid beta 1-42 peptide; Numbers 1-42 count on the Amyloid beta peptide, not on APP; also called biotinylated human Amyloid beta 1-42; N-terminal biotin Abeta 1-42
T1 sequence (P05067 672-713 limits assumed): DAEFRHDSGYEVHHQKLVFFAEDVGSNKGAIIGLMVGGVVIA
Put plainly: SPR (ProteOn); biotinylated peptide on streptavidin chip, scFv in solution. As for the experimental part: These experiments were performed essentially as described by Karlsson et al. (Karlsson et al., 1991).
The chip surface was regenerated between cycles by a single 60 second injection of 10 mM Glycine pH 2.0 to remove scFv bound to the peptide.
Each scFv at 100-200 nM was sequentially passed over the peptide surface for a sufficient amount of time to observe sensorgrams that could be fitted to an appropriate binding model with confidence. An irrelevant scFv blank was subtracted from the main dataset to reduce the impact of any buffer artefacts or non-specific binding effects. An appropriate binding model was then fitted to the data.
As for B1, the Kd (usually a measure of binding affinity in units of concentration) turned out to be 0.188 nM; the koff (in general, the rate constant with which the complex falls apart) worked out at 2.25e-05 s⁻¹; the on-rate constant (kon) (commonly a measure of how fast the partners come together) was found to be 120000 M⁻¹ s⁻¹.
For B2 the same measures were 0.217 nM, 3.94e-05 s⁻¹ and 181000 M⁻¹ s⁻¹.
The matching figures for B3: 0.701 nM, 0.000138 s⁻¹ and 197000 M⁻¹ s⁻¹.
For B4 the same measures were 0.729 nM, 0.000103 s⁻¹ and 141000 M⁻¹ s⁻¹.
The molecule B5 yielded a Kd of 0.241 nM, a koff of 5.14e-05 s⁻¹ and a kon of 213000 M⁻¹ s⁻¹.
For B6 the same measures were 0.472 nM, 6.41e-05 s⁻¹ and 136000 M⁻¹ s⁻¹.
For B7 the same measures were 0.327 nM, 4.39e-05 s⁻¹ and 134000 M⁻¹ s⁻¹.
For B8 the same measures were 0.483 nM, 8.92e-05 s⁻¹ and 185000 M⁻¹ s⁻¹.

Another assay addresses T1, biotinylated synthetic human Amyloid …. Put plainly: HTRF epitope competition; purified scFv titrated; competitor Abet0144-GL IgG1-TM. As for the experimental part:
Two thousand and twenty four scFv chosen at random from selection rounds 3 and 4 of the targeted mutagenesis approach described in section 1.2 were expressed in bacteria to produce unpurified periplasmic scFv.
One thousand six hundred and seventy two scFv, randomly selected from selection rounds 9 to 11, were screened in an epitope competition assay as described in section 1.3.
Where the assay was performed more than once, the absolute range of IC₅₀ values is provided.
Background: In TR-FRET formats the signal depends on donor and acceptor labels being close together.
As for B1, the IC50 (usually the concentration that gives 50% inhibition) was 0.48 nM. This lies in the sub-nanomolar range.
In turn, B2 showed an IC50 of 0.75 nM.
In turn, B3 had an IC50 of 0.63 nM.
Regarding B4, the IC50 turned out to be 0.55 nM.
Still for that read-out and setting: with B5 the figure was 0.47 nM.
Still for that read-out and setting: with B6 the figure was 0.97 nM; with B7, 0.69 nM; with B8, 0.84 nM.

The values above are taken from patent US20190262327A1 (AstraZeneca / MedImmune, published 2019).
